Measured values as given in US20260049134A1 (UNIVERSITY OF FLORIDA RESEARCH FOUNDATION, published 2026).

T1: CADM1, endogenous in H929 multiple myeloma cells (human, UniProt Q9BY67 45-442)
T1 construct: Native protein on H929 cells (flow cytometry, siRNA knockdown) and in H929 lysates (IP/MS); RPMI-8226 cells were used for sorting with HW-97; also called IGSF4A
T1 sequence: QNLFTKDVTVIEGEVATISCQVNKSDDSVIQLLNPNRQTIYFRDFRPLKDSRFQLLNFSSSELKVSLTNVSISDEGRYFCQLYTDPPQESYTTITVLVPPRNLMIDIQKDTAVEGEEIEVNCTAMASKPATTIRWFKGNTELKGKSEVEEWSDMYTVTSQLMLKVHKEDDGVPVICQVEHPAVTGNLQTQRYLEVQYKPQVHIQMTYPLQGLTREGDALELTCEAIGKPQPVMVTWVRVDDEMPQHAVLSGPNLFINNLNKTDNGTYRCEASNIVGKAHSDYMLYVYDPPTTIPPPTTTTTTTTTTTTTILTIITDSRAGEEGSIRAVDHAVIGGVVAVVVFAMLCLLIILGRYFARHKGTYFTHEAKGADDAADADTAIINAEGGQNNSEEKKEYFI


Assays:
[1] = target: T2, PTPRG, endogenous in H929 multiple myeloma cells (human, UniProt P23470 20-1445); experiment: flow cytometry, H929 + vehicle; None 2.74
T2 construct: Native protein on H929 cells (flow cytometry, siRNA knockdown) and in H929 lysates (IP/MS); also called phosphatase receptor type γ

[2] = target: T1, CADM1, endogenous in H929 multiple …; experiment: flow cytometry, H929 + NT Green siRNA; None 416
[3] = target: T2, PTPRG, endogenous in H929 multiple …; experiment: flow cytometry, IgG1 on H929 cells
Experimental: (§1) Staining protocol. Cells were harvested (5×10⁴ cells per sample), washed once with phosphate-buffered saline (PBS) at RT, and a second time with ice-cold FACS buffer (PBS, 0.5% BSA, 2 mM EDTA, 0.1% NaN₃). Cells were stained in 50 μL of primary antibody for 30 min on ice, washed twice with 100 μL FACS buffer, stained with 50 μL of diluted secondary antibody, washed two more times in FACS, and then resuspended in 50 μL FACS buffer. Samples were acquired on an Accuri C6 Plus or a BD FACSCanto II flow cytometer (both from BD Biosciences). Data were analyzed using FlowJo version 10 software. Primary antibodies: Fab (10 μg/mL), IgG1 (0.1 to 50 μg/mL), or 25 μL polyclonal Fabs from periplasmic extracts. Polyclonal Fabs were produced by diluting bacterial stocks by a factor of 100 in autoinduction media and incubating overnight to induce expression as previously described. […] Viability stains: DAPI (Cell Signaling Technology) or SYTOX AADvanced Dead Cell Stain (Thermo Fisher Scientific). Labeling: The panel of chimeric rabbit/human IgG1s was labeled using the Alexa Fluor 647 Labeling Kit (Thermo Fisher Scientific, #A20173) to facilitate single-step staining. Competition: Unlabeled IgG1s were added at saturating concentrations of 60 μg/mL to block the target receptors, incubating on ice for 30 min, followed by the addition of an equal volume of the Alexa Fluor 647 labeled antibody at 2 μg/mL, and the mixture was incubated on ice for another 30 min.

[4] = target: T2, PTPRG, endogenous in H929 multiple …; experiment: flow cytometry, H929 + PTPRG siRNA (target knocked down); None 2.13
Experimental: Recombinant purified ECDs (50-150 ng) of each putative target protein were coated, incubated with 150 ng of the indicated primary antibody, and binding was detected using a peroxidase-conjugated anti-human Fab secondary antibody. Heatmap represents averages of technical triplicates. (8B) Target validation via siRNA knockdown. H929 cells were transfected with siRNA pools targeting the putative antibody targets ICAM1, CADM1, and PTPRG. Cells were then subjected to cognate IgG binding analysis via flow cytometry. (NT, non-targeting siRNA).
as §1

T2 sequence (P23470 20-1445 limits assumed): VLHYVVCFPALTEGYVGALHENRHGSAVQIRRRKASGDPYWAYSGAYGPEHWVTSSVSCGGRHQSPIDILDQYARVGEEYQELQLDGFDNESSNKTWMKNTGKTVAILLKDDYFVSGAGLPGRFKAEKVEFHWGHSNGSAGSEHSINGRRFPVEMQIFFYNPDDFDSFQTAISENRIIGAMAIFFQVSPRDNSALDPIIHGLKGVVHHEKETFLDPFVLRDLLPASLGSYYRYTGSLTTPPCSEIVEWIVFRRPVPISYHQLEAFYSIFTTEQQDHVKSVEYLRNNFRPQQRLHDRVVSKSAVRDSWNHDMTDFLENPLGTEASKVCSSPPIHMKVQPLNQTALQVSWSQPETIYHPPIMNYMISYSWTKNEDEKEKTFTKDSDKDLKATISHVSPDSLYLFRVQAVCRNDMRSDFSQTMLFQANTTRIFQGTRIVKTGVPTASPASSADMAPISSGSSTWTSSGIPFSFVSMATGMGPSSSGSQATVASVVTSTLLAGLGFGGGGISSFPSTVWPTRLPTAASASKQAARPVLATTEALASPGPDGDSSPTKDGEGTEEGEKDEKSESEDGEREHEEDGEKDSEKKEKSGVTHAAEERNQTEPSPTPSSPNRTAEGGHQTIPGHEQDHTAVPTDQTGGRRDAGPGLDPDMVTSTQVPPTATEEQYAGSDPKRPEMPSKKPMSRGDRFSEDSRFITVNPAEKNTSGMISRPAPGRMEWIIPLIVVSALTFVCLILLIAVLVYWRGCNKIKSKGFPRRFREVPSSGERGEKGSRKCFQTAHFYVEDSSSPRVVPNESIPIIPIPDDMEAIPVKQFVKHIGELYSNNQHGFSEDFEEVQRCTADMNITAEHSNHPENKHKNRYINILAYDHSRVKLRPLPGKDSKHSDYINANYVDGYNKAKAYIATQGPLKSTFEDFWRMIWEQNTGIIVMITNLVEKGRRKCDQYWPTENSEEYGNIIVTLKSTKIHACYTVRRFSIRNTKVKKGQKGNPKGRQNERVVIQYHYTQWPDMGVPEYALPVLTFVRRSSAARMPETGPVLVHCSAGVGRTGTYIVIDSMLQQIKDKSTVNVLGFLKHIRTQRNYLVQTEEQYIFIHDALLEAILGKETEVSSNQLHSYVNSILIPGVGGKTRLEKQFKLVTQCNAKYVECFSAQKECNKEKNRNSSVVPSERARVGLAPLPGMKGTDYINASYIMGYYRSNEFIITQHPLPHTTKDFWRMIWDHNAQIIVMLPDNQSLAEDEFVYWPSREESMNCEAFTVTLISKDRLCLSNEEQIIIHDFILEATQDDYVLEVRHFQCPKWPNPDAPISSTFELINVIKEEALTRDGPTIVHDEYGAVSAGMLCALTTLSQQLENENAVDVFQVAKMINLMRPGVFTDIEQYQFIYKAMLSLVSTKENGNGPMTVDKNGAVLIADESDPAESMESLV

Row | Binder | Cells stained (%) [1] | mAb binding (MFI) [2] | antibody-bound positive cells (%) [3] | Cells stained (%) [4]
1 | TH9-0022 (antibody, human IgG1, kappa, L234A L235A, V domains shown, also called TH9-022; negative control) VH: QSLEESGGRLVTPGTPLTLTCTVSGFSLSSYAMNWVRQAPGKGLEWIGIINSYGSTYYASWAKGRFTISKTSTTVDLKITSPTTEDTATYFCARVTYDSYGYGYAPYGMDLWGPGTLVTVSS VL: LVMTQTPSSTSNAVGGTVTIKCQASQSIGNVLAWYQQKPGQPPKLLIYAASTLASGVPSRVGGSRSGTEYTLTISGVQREDAATYYCLGSDSDSDIAFGGGTELEILR | 2.62% | 483 |  | 
2 | HW-42 chimeric rabbit-human IgG1 LA/LA/PG (antibody, V domains shown, Fc-silenced (L234A/L235A/P329G) IgG1, lambda; Alexa Fluor 647-labeled in single-step flow cytometry; Cluster C-1) VH: QSVKESEGGLFKPADTLTLTCTVSGFSLSSNEISWVRQAPGEGLEYIGIIDTGGRAYYAVWARSRSTITRNTNLNTVTLKMTSLTAADTATYFCARGGVDTEWYAFSSWGPGTLVTVPS VL: SFVLTQPASVQVNLGQTVSLTCTADTLSRRYASWYQQKPGQAPVLLIFRDTSRPSGVPDRFSGSSSGDTATLTISGAQAGDEADYYCATSDGSGSNYQYVFGGGTQLTVTG | 97.5% |  | 99.8% | 0.55%
3 | HW-25 chimeric rabbit-human IgG1 LA/LA/PG (antibody, V domains shown, Fc-silenced (L234A/L235A/P329G) IgG1, lambda; Alexa Fluor 647-labeled in single-step flow cytometry; Cluster C-1) VH: QSLEESGGRLVTPGTPLTLTCTVSGFSLSSYAMGWVRQAPGKGLEWIGIIDSRGSTYYATWAKGRFTISKTSTTVDLKITSPTTEDTATYFCAREDSYYYDSFNLWGPGTLVTVSS VL: SFVLTQPASVQVNLGQTVSLTCTADTLSRRYASWYQQKPGQAPVLLIYRDTSRPSGVPDRFSGSSSGNTATLTISGAQAGDEADYYCATSDGSGSSYQCVFGGGTQLTVTG | 97.2% |  | 99.6% | 0.87%
4 | HW-97 chimeric rabbit-human IgG1 LA/LA/PG (antibody, V domains shown, Fc-silenced (L234A/L235A/P329G) IgG1, lambda; Alexa Fluor 647-labeled in single-step flow cytometry; Prototype of cluster C-97) VH: QKQLVESGGRLVTPGTPLTLTCTVTGIDLSSHGMSWVRQAPGKGLEWIGVIYPSGSTWYASWARGRFTISKTSTTVDLKMTSLTTEDTATHFCARGDVGGADNNIWGPGTLVTVSS VL: SFVLTQPASVQVDLGQTVSLTCTAETLSRSYASWYQQKPGQAPVLLIYRDTSRPSGVPDRFSGSSSGNTATLTISGAQAGDEADYYCATSDGSGSSYQYVFGGGTQLTVTG |  | 9600 |  | 
5 | HW-101 chimeric rabbit-human IgG1 LA/LA/PG (antibody, V domains shown, Fc-silenced (L234A/L235A/P329G) IgG1, lambda; Alexa Fluor 647-labeled in single-step flow cytometry; Cluster C-97) VH: QEQLVESGGRLVTPGTPLTLTCKASGFSLGKYDMSWVRQAPGKGLEWIGTIYAGSGSTWYASWAKGRFTISKTSTTVDLKMTSLTTEDTATYFCARDFLGVNSIWGPGTLVTISS VL: SFVLTQPASVQVNLGQTVSLTCTADTLSRSYASWYQQKPDQAPVLLIHRDTSRPSGVPDRFSGSNSGNTATLTISGAQAGDEADYYCATSDGSGSNFHFVFGGGTQLTVTG |  | 6440 |  | 
6 | HW-1 chimeric rabbit-human IgG1 LA/LA/PG (antibody, V domains shown, Fc-silenced (L234A/L235A/P329G) IgG1, lambda; Alexa Fluor 647-labeled in single-step flow cytometry; Prototype of cluster C-1) VH: QSLEESGGGLFKPTDTLTLTCTASGFSLGSSYAISWVRQAPGKELEWIGTIDSGRAYYARWAKSRSTITRNTNENTVTLKMTSLTAADTATYFCARDLIPTYSQDIWGPGTLVTISS VL: SFVLTQPASVQVNLGQTVSLTCTADTLSRRYASWYQQKPGQAPVLLIYRDTSRPSGVPDRFSGSSSGNTATLTISGAQAGDEADYYCATSDGSGNSYQYVFGGGTQLTVTS | 99.4% |  | 100% | 1.2%
7 | HW-70 chimeric rabbit-human IgG1 LA/LA/PG (antibody, V domains shown, Fc-silenced (L234A/L235A/P329G) IgG1, lambda; Alexa Fluor 647-labeled in single-step flow cytometry; Cluster C-1) VH: QSLEESGGRLVTPGTPLTLTCTVSGFSLSSNAMSWVRQAPGKGLEWIGTIDGYGYTYYASWAKGRFTVSKTSTTVDLKITSPTTEDTATYFCAREIYLGSNFWGPGTLVTISS VL: SFVLTQPASVQVNLGQTVSLTCTADTLSRRYASWYQQKPGQAPVLLIYRDTSRPSGVPDRFSGSSSGNTATLTISGAQAGDEADYYCATADGSGSSYQFVFGGGTQLTVTG | 98.6% |  | 99.8% | 0.87%
8 | HW-17 chimeric rabbit-human IgG1 LA/LA/PG (antibody, V domains shown, Fc-silenced (L234A/L235A/P329G) IgG1, lambda; Alexa Fluor 647-labeled in single-step flow cytometry; Cluster C-1) VH: QSLGESRGRLVTPDETLTLTCTVSGIDLSSNAMSWVRQAPGEGLEWIGTINTGGRAYYASWAKGRFTISRTSTTVDLKMTSLTTEDTATYFCARERYSDGRAYDIWGPGTLVTISS VL: SFVLTQPASVQVNLGQTVSLTCTADTLSRRYASWYQQKPGQAPVLLIYTDSNRPSGIPDRFSGSSSGNTATLTISGAQAGDEADYYCATDDGSGSIYQYVFGGGTQLTVTG | 99.3% |  | 100% | 1.25%
